According to patent publication US20110055976:

System: SUMO1-trypsinogen fusion, chloroplast-targeted, extracted from N. benthamiana leaves and refolded
Sequence (chain, as listed by the source): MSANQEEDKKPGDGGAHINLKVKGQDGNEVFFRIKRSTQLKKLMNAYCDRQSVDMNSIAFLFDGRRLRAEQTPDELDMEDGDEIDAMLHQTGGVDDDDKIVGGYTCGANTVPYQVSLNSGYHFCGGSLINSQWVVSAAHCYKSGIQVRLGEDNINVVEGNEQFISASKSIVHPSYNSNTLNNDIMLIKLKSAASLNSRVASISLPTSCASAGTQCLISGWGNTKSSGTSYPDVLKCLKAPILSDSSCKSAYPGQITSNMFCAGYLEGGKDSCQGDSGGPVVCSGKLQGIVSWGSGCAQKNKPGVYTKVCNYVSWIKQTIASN

enterokinase (Sigma, cat. no. E0885)
kinetics of BAPNA cleavage (absorption at 405 nm) after enterokinase treatment of the folding reaction: refolded and enterokinase-treated SUMO1-trypsinogen fusion produces active trypsin capable of digesting the substrate BAPNA
